Assay: yeast display, Sf9 membrane polyspecificity reagent, FACS + sequencing; frameworks hold sequencing errors
Procedure, shortened: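 A synthetic nanobody library was expressed on Saccharomyces cerevisiae BJ5465 by galactose induction for 36–48 hours. The library was stained for 1 hour at 4 °C with 10% biotinylated, detergent-solubilized Sf9 membrane reagent and enriched with streptavidin microbeads before FACS. Low and high (top ~1%) gates were set on anti-HA fluorescence for expression and streptavidin fluorescence for reagent binding, and each polyreactivity label reflects the gate of origin.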

Row | Sequence | polyreactivity (PSR sort gate)
1 | QVQLVESGGGLVQAGGSLRLSCAASGIIFYDYAMGWYRQAPGKERELVAAISRSGSSTYYADSVKGRFTISRDNAKNTVYLQMNSLKPEDTAVYYCASRFGDMGYWGQGTQVTVSS | high polyreactivity
2 | QVQLVESGGGLVQAGGSLRLSCAASGIIFYDYAMGWYRQAPGKERELVAAISTDAGSTYYADSVKGRFTISRDNAKNTVYLQMNCLKPEDTAVYYCNADELSYYVSWDYEYDYWGQGTQVTVSS | high polyreactivity
3 | QVQLVESGGGLVQAGGSLRLSCAASGIIFYDYAMGWYRQAPGKERELVAAITSSGGSTYYADSVKGRFTISRDNAKNTVYLQMNSLKPEDTAVYYCAAATRGSGRRYDYWGQGTQVTVSS | high polyreactivity
4 | QVQLVESGGGLVQAGGSLRLSCAASGIIFYGYAMGRYRQAPGKERELVAAITSSGRTYYADSVKGRFTISRDNAKNTVYLQMNSLKPEDTAVYFCNVLLQRVYGTAPSFDYWGQGTQVTVSS | high polyreactivity
5 | QVQLVESGGGLVQAGGSLRLSCAASGIIFYGYAMGWYRQAPGKERELVAAISRSGGSTYYADSVKGRFTISRDNAKNTVYLQMNSLKPEDTAVYYCAAVRIRPLRYYYWGQGTQVTVSS | high polyreactivity
6 | QVQLVESGGGLVQAGGSLRLSCAASGIIFYGYAMGWYRQAPGKERELVAAITYSGGSTYYADSVKGRFTISRDNAKNTVYLQMNSLKPEDTEVYYCAAYDAYSPYQALYDYWGQGTQVTVSS | low polyreactivity
7 | QVQLVESGGGLVQAGGSLRLSCAASGIIFYLNAMGWYRQAPGKERELVAAISSSGGRTNYADSVKGRFTISRDNAKNSVYLQMNSLKPEDTAVYFCAAVITFYRYPPGETYYYWGQGTQVTVSS | high polyreactivity
8 | QVQLVESGGGLVQAGGSLRLSCAASGIIFYLYAMGWYRQAPGKERELVAPITTGGRTNYADSVKGRFTISRDNAKNTVYLQMNSLKPEDTAVYYCAATHRGQGGYYWGQGTQVTVSS | low polyreactivity
9 | QVQLVESGGGLVQAGGSLRLSCAASGIIFYRNTMGWYRQAPGKERELVASISRGGSTNYADSVKGRFTISRDNAKNTVYLQMNSLKPEDTAVYYCAAYTYIPLSYYRGYTMDYWGQGTQVTVSS | low polyreactivity
10 | QVQLVESGGGLVQAGGSLRLSCAASGIIFYSSAMGWYRTAPGKERELVAAISWGGRTYYADSVKGRFTISRDNAKNTVYLQMNSLKPEDTAVYYCLNGRYWRRYDYWGQGTQVTVSS | high polyreactivity
11 | QVQLVESGGGLVQAGGSLRLSCAASGIIFYSYAMGWYRQAPGKERELVATISFSGDNTYYADSVKGRFTISRDNAKNTVYLQMNSLKPEDTAVYYCAAASTYGGYYYSVSFEYWGQGTQVTVSS | low polyreactivity
12 | QVQLVESGGGLVQAGGSLRLSCAASGIIFYYSAMGCYRQAPGKERELVAAISWSGGTTIYADSVKGRFTISLDNAKSTVYLQMNSLKPKDTAVYYCAAAFSPGWWSRHTYDYDYWGQGTQLTVSS | high polyreactivity
13 | QVQLVESGGGLVQAGGSLRLSCAASGIIFYYYAMGGYRQAPGKEREFVAGIRWSSGSTYYADSVKGRFTISRDNAKNTVYLQMNSLKPEDTAVYYCAADSSGEYPGGYWGQGTQVTVSS | low polyreactivity
14 | QVQLVESGGGLVQAGGSLRLSCAASGIIFYYYAMGWYRQAPGKERELVAAISTSGGRTYYADSVKGRFTISRDNAKNTVYLQMNSLKPEDTAVYYCNTKVISRTSERRGNGFTRYDYWGQGTQVTVSS | low polyreactivity
15 | QVQLVESGGGLVQAGGSLRLSCAASGIIFYYYAMGWYRQAPGKERELVAGISYSGGSTYADSVKGRFTISRDNAKNTVYLQMNSLKPEDTAVYYCASDYDYGGHWYDYWGQGTQVTVSS | low polyreactivity
16 | QVQLVESGGGLVQAGGSLRLSCAASGIIFYYYGMGWYSQAPGKERELVAAISTGGSTNYADSVKGRFTISRDNAKNTVYLQMNRLKPEDTAVYYCAVTYWWYYGYDYWGQGTQVTVSS | low polyreactivity
17 | QVQLVESGGGLVQAGGSLRLSCAASGIIIDYNAMGWYRQAPGKERELVAAISSRGGSTYYADSVKGRFTISRDNAKNPVYFQMNSLKPEDTAVYYCAGRPDHQRYDYWGQGSQVTVSS | low polyreactivity
18 | QVQLVESGGGLVQAGGSLRLSCAASGIIIDYYTMGWYRQAPGQERELVAAINKSGGSTYADSVKGRFTISRDNAKNTVYLQMNSLKPEDTAVYYCAAEVDYSYWPEYARKYYYWGQGTQVTVSS | low polyreactivity
19 | QVQLVESGGGLVQAGGSLRLSCAASGIIIGGYAMGWYRQAPGKERELVADITWSGGSTTYADSVKGRFTISRDNAKNTVYLQMNSLKPEDTAVYYCAAEDYYIYREPYDYWGQGTQVTVSS | low polyreactivity
20 | QVQLVESGGGLVQAGGSLRLSCAASGIIIRKYAMGWYRQAPGKERELVAAITTRGSRTYYADSVKGRFTISRDNAKNTVYLQMNSLKPEDTAVYYCAGDRYTVRMDYWGQGTQVTVSS | high polyreactivity
21 | QVQLVESGGGLVQAGGSLRLSCAASGIIIRYYAMGWYRQAPGKERELVADITTGGTTYYADSVKGRFTISRDNAKNTVYLQMNCLKPEDTAVYYCAAYYFPTYSKTYIYPFDYWGQGTQVTVSS | low polyreactivity
22 | QVQLVESGGGLVQAGGSLRLSCAASGIIIRYYAMGWYRQAPGKERELVADITTGGTTYYADSVKGRFTISRDNAKNTVYLQMNSLKPEDTAVYYCAAYYFPTYSKTYIYPFDYWGQGTQVTVSS | low polyreactivity

Row | Sequence | polyreactivity (PSR sort gate)
23 | QVQLVESGGGLVQAGGSLRLSCAASGIIISRYAMGWYRQAPGKERELVADISIGDSTNYADSVKGRFTISRDNAKNTVYLQMNSLKPEDTAVYYCAAGDYFYSYYYWGQGTQVTVSS | low polyreactivity
24 | QVQLVESGGGLVQAGGSLRLSCAASGIIIVGNSMGWYRQAPGKQRELVASINSGGSTYYADSVKGRFTISRDNAKNTVYLQMNSLKPEDTAVYDCAVEEDRYYYDDYDYCGQGTQVTVSS | low polyreactivity
25 | QVQLVESGGGLVQAGGSLRLSCAASGIILDHYAMGWYRQAPGKERELVAAISSGTRTNYADSVKGRFTISRDNAKNTVYLQMNSLKPEDTAVYYCAATIYRRYRSKSSITSYWGQGSQVTVSS | high polyreactivity
26 | QVQLVESGGGLVQAGGSLRLSCAASGIILKYYAMGWNRQAPVKERELVAAITSSGDSTYYADSVKGRFTISRDNAKNTVYLQMNSLKPDDTAVYYCAALRFRGGQSTGRDRMDYWGQGTQVTVSS | high polyreactivity
27 | QVQLVESGGGLVQAGGSLRLSCAASGIILPQNAMGWYRQAPGKERELVAAISKSGGRTYYADSVKGRFTISRDNAKNTVYLQMNSLKPEDTAVYYCAAVVRRAPEFDYWGQGTQVTVSS | high polyreactivity
28 | QVQLVESGGGLVQAGGSLRLSCAASGIILSAYAMGWYRQAPGKERELVARISRSGGRTYYADSVKGRFTISRDNAKNTVYLQMNSLKPEDTAVYYCAADYTYGFGLYFGYGYWRQGTQVTVSS | high polyreactivity
29 | QVQLVESGGGLVQAGGSLRLSCAASGIILSENAKGWYRQAPGKERELVAAITSSGSTNYADSVKGRLTISRDNAKNTVYLQMNSLKPVDTAVYYCATQNLYVSWYYAWYGYGYWGQGTQVNVSS | low polyreactivity
30 | QVQLVESGGGLVQAGGSLRLSCAASGIILSPYAMGWYRQAPGKERELVAAISRSGGSTYYADSVKGRFTISRDNAKNTVYLQMNSLKPEDTAVYYCAAEYYGYWEYDYWGQGTQVTVSS | high polyreactivity
31 | QVQLVESGGGLVQAGGSLRLSCAASGIILTPNAMGWYRQAPGTERELVAAIDWRDGITYYADSVKGRFTISRDNAKNTVYLQMNSLKPEDTAVYYCAATFSRGYDYWGQGTQVTVSS | high polyreactivity
32 | QVQLVESGGGLVQAGGSLRLSCAASGIILTYYAMGWYRPAAGHERELVARISSSGGRTYYADSVKARFTISRDNAKNTLYLQMNSQKPEETAVYYCAAAIVSSGRNDYWGHGTQVTVSS | high polyreactivity
33 | QVQLVESGGGLVQAGGSLRLSCAASGIILYPYAMGWYRQAPGKERELVAAISWSGGSTYYADSVKGRFTISRDNAKNTVYLQMNSLKPEDTAVYYCNARYYGPSWNSYDYWGQGTQVTVSS | high polyreactivity
34 | QVQLVESGGGLVQAGGSLRLSCAASGIILYRNGMGWYRQAPGKERELVAAISWSTGSTYYADSVKGRFTISRDNAKYTVYLQMNSLKPEDTAVYYCATDYVGYSFGMYYWGQGTQVTVSS | low polyreactivity
35 | QVQLVESGGGLVQAGGSLRLSCAASGIILYYYAMGWYRQAPGKERELVAAISSGGNTYYADSVKGRFTISRDNAKNTVYLQMYSLKPEDTAVYYCAAVTVIGGEYDYWGQGTQVTVSS | low polyreactivity
36 | QVQLVESGGGLVQAGGSLRLSCAASGIISSFYAMGWYRQAPGKERELVAAINWSGDSTYYADSVKGRFTISRDNAKNTVYLQMNSLKPEDTAVYYCAADYYGFYDEHDYWGQGTKVTVSS | low polyreactivity
37 | QVQLVESGGGLVQAGGSLRLSCAASGIIYDAYAMGWYRQAPGKERELVAAISSGGSTYYADSVKGRFTISRDNAKNTVSLQMNSLKPEDTAVYYCAAETEYPSWYDYWGQGTQVTVSS | low polyreactivity
38 | QVQLVESGGGLVQAGGSLRLSCAASGIIYHFNDMGWYRQAPGQERELVASIDSTGSTNYADSVKGRFTLSRDNAKNTVYLQMNSLKPEDTAVYYCAVLNHRVDSVLTRYYYWGQGTQVTVSS | low polyreactivity
39 | QVQLVESGGGLVQAGGSLRLSCAASGIIYVYAMGWYRQAPGKERELVAAITWSGGSTYYADSVKGRFTISRDNAKNTVYLQMNTLKPEDTAVYYCARGQGGEYDLDYDYWGQGTQVTVSS | low polyreactivity
40 | QVQLVESGGGLVQAGGSLRLSCAASGIIYYANVMGWYRQAPGKERELVAGISRNGGRTYYADSVKGRFTISRDNAKNTVYLQMNSLKPEDTAVYYCAARGSYTSIFDYWGQGTQVTVSS | high polyreactivity
41 | QVQLVESGGGLVQAGGSLRLSCAASGINFFGYAMGWYRQAPGKERELVAGISRSTGRTYYADSVKGRFTISRDNAKNTVYLQMNSLKQEDTSVYYCAARATRSLSRSMDYWGQGTQVTVSS | high polyreactivity
42 | QVQLVESGGGLVQAGGSLRLSCAASGINFPGYAMGWYRQAPGKERELVAVIRKSGTSTYYADSVKGRFTISRDNAKNTVYLQMNSLKPEDTAVYYCAAGGPSTLDDYWGQGTQVTVSS | low polyreactivity
43 | QVQLVESGGGLVQAGGSLRLSCAASGINFQNYAMGLYRQAPGKEREFVASISFSGASTYYADSVKGRFTISRDKAKNTVYLQMNSLKPDDTAVYYCAARYLYGPKYYYWGQGTQVTVSS | high polyreactivity

From the nanobody polyreactivity screen of Harvey et al. (2022)
